Assay results: PMC2141769

Key:
[1] = target: EC0, mutant E-cadherin protein that completely lacks the cytoplasmic domain; experiment: cross-linking
[2] = target: EΔC37, mutant E-cadherin polypeptide with COOH-terminal deletion of 37 amino acid residues; experiment: co-IP
[3] = target: EΔC71, mutant E-cadherin polypeptide with COOH-terminal deletion of 71 amino acid residues; experiment: co-IP

Sequence of EC0, mutant E-cadherin protein that completely lacks the cytoplasmic domain (P09803 152-704, stated change not applied): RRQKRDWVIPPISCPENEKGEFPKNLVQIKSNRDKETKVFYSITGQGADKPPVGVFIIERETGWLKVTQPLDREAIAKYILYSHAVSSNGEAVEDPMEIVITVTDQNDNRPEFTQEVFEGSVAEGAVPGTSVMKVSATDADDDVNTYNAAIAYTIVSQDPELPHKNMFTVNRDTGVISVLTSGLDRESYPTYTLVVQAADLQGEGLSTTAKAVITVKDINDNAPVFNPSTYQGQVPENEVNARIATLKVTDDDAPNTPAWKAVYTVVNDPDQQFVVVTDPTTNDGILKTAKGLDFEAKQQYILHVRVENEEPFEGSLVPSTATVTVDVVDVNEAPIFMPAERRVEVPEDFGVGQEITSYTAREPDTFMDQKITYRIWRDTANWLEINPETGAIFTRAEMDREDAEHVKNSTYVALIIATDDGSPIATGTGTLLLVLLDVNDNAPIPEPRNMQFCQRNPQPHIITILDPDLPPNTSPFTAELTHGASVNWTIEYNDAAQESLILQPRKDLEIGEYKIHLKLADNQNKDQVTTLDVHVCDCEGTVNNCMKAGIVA

stoichiometry N [1]	amount of p120 coprecipitated, percent of EK cells [2]	amount of p120 coprecipitated, percent of EK cells [3]	Molecule
2			EC0, mutant E-cadherin protein that completely lacks the cytoplasmic domain (domain or fragment)
	10%	10%	p120 (natural protein) MDDSEVESTASILASVKEQEAQFEKLTRALEEERRHVSAQLERVRVSPQDANPLMANGTLTRRHQNGRFVGDADLERQKFSDLKLNGPQDHSHLLYSTIPRMQEPGQIVETYTEEDPEGAMSVVSVETSDDGTTRRTETTVKKVVKTVTTRTVQPVAMGPDGLPVDASSVSNNYIQTLGRDFRKNGNGGPGPYVGQAGTATLPRNFHYPPDGYSRHYEDGYPGGSDNYGSLSRVTRIEERYRPSMEGYRAPSRQDVYGPQPQVRVGGSSVDLHRFHPEPYGLEDDQRSMGYDDLDYGMMSDYGTARRTGTPSDPRRRLRSYEDMIGEEVPSDQYYWAPLAQHERGSLASLDSLRKGGPPPPNWRQPELPEVIAMLGFRLDAVKSNAAAYLQHLCYRNDKVKTDVRKLKGIPVLVGLLDHPKKEVHLGACGALKNISFGRDQDNKIAIKNCDGVPALVRLLRKARDMDLTEVITGTLWNLSSHDSIKMEIVDHALHALTDEVIIPHSGWEREPNEDCKPRHIEWESVLTNTAGCLRNVSSERSEARRKLRECDGLVDALIFIVQAEIGQKDSDSKLVENCVCLLRNLSYQVHREIPQAERYQEAAPNVANNTGPHAASCFGAKKGKDEWFSRGKKPIEDPANDTVDFPKRTSPARGYELLFQPEVVRIYISLLKESKTPAILEASAGAIQNLCAGRWTYGRYIRSALRQEKALSAIADLLTNEHERVVKAASGALRNLAVDARNKELIGKHAIPNLVKNLPGGQQNSSWNFSEDTVISILNTINEVIAENLEAAKKLRETQGIEKLVLINKSGNRSEKEVRAAALVLQTIWGYKELRKPLEKEGWKKSDFQVNLNNASRSQSSHSYDDSTLPLIDRNQKSDKKPDREEIQMSNMGSNTKSLDNNYSTPNERGDHNRTLDRSGDLGDMEPLKGTTPLMQDEGQESLEEELDVLVLDDEGGQVSYPSMQKI
